{
  "source": "paper PMC11290353",
  "molecular_target": "RNA Pol II large subunit (CTD) (UniProt P08775)",
  "experiment": "HA IP; blot Pol II S5P, S2P",
  "conditions": "reference: HA-CMTR1 wild type; sites S26,S28,T30,S31,S46,S49,S51,S53,S55,T57,S63,S64,S66,S75,S89",
  "data": [
    {"substance": "CMTR1 (from UniProt Q8N1G2) HA-CMTR1 15A", "values": [
      {"measurement": "binding against the reference", "value": "weaker"}
    ]}
  ]
}
